The values below are quoted from earlier work in article PMC2888693.

This data set addresses Tube DD (Drosophila melanogaster) (UniProt P22812).
UniProt P22812, sequence (P22812 27-152): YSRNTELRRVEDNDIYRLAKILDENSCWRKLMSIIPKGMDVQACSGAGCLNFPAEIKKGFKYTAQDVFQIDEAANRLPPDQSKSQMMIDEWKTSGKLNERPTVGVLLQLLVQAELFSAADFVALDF

As a reminder, the Kd is the concentration at which binding is half-saturated. Take Pelle DD (from UniProt Q05652): the Kd was 500 nM.
